Measured values from patent US6646113.

Biological target: spliceosomal snRNP core Sm proteins, endogenous in cell extracts
Assay: co-IP with Y12 from transfected 293T cells, Western blot

In the case of “myc-tagged SMNΔC26 (from UniProt Q16637 1-268)”, the amount co-immunoprecipitated relative to wild-type SMN (fraction of wild type) is reported as 0.33.
